Measurements as given in doi:10.1101/2021.04.26.440876, “Fluoxetine targets an allosteric site in the enterovirus 2C AAA+ ATPase and stabilizes the hexameric complex” (bioRxiv, 2021).

Biological target: the molecule itself
Experiment: SEC; size exclusion chromatography gel filtration profile of the MBP-tagged full-length preparation (Figure S9)

B1: MBP-tagged full-length CV-B3 2C (natural protein)
chain: NNSWLKKFTEMTNACKGMEWIAVKIQKFIEWLKVKILPEVREKHEFLNRLKQLPLLESQIATIEQSAPSQSDQEQLFSNVQYFAHYCRKYAPLYAAEAKRVFSLEKKMSNYIQFKSKCRIEPVCLLLHGSPGAGKSVATNLIGRSLAEKLNSSVYSLPPDPDHFDGYKQQAVVIMDDLCQNPDGKDVSLFCQMVSSVDFVPPMAALEEKGILFTSPFVLASTNAGSINAPTVSDSRALARRFHFDMNIEVISMYSQNGKINMPMSVKTCDDECCPVNFKKCCPLVCGKAIQFIDRRTQVRYSLDMLVTEMFREYNHRHSVGTTLEALFQ
notes: coxsackievirus B3 non-structural protein 2C (cut product of the polyprotein), full length (329 residues by the printed limits of the other constructs); source: purified
B1: binds.
